Experimental data from patent US20040101905A1, “Product” (priority 2000, published 2004).

What was measured:
[1] = target: T1, SC (secretory component, extracellular portion of the poly Ig receptor) (Homo sapiens, UniProt P01833); experiment: ELISA of phage binding to immobilised SC; conditions: for SC binding of single phage clones (ELISA): immobilised colostrum SC
T1 construct: “secretory component”—the extracellular portion of the poly Ig receptor; from tissue; host or cells: human colostrum
Method: Affinity selection: Free SC purified from human colostrum by Jackaline-Sepharose column (Pharmacia Biotech, Uppsala, Sweden) (Brandtzaeg P. Scand. J. Immunol. 1974, 3:579-88) was used. SC was immobilised in Nunc MaxiSorp (Costar) tubes at approximately 30 μg/ml in a volume of 500 μl in each tube at 4° C. ON. The tubes were blocked with 1% BSA or 1% milk powder in PBS for 1 h at RT. Approximately 10^10 TU from each library were pre incubated with PBS and 1% BSA or 1% milk powder (1:1) for 1 h at 4° C. before they were added to the tubes and incubated at RT for 1.5 h. The tubes were washed 6 times with PBS/0.05% Tween 20. Bound phage were eluted by incubation with 500 μl 0.1M HCl-glycine pH 2.2 for 10 min and neutralised with 75 μl 0.1M Tris pH 9.1. Phage were amplified essentially as described by Smith and Scott (Methods Enzymol., 1993, 217:228-257) and two additional rounds of affinity selection were performed.
ELISA assay. The purified colostrum SC was coated at 30 μg/ml in Nunc MaxiSorb wells in PBS at 4° C. ON. The wells were blocked with 200 μl PBS with 1% BSA or 1% milk powder for 1 h at RT. Phage supernatants from amplified eluates or single colonies were diluted 1:1 in blocking buffer, added to the wells and allowed to react with immobilsed SC for 1.5 h at RT. The wells were washed 6 times with PBS/0.05% Tween and bound phage were detected by adding a horse radish peroxidase (HRP)/Anti-M13 IgG conjugate (Pharmacia) 1:4000 in PBS with 1% BSA or 1% milk powder. After incubation for 1 h at RT, washing with PBS/[…] and addition of ABTS substrate solution (ABTS tablets from Boehringer Mannheim in citrate buffer, pH 4.0) the ABTS-HRP reactions were read in a microtiter plate reader set at […] (Dynatech MR 700).

FcγRI receptor = target: T2, FcγRI receptor (Homo sapiens, UniProt P12314); experiment: Affinity selection of phage displayed peptides on IFN-γ stimulated U937 cells (FcγRI binding)
T2 construct: To increase FcγRI expression the U937-cells were treated with 100 U/ml IFN-γ for 40 hours; endogenous in cells; host or cells: U937 cells stimulated with IFN-γ
Method: (§1) Affinity selection: For affinity selection, […] stimulated U937cells were washed in 20 ml pan-wash buffer (PBS pH7.4, 1% BSA, 1 mMCaCl2, 10 mMMgCl2) and then resuspended in 1 ml pan-wash buffer. Portions (1×10^10 E. coli K91K transducing units (TU)) of each library were added to the cells. Cells and phages were incubated with agitation for 1.5 hours at 4° C. Unbound phages were removed by washing the cells 6 times with 2 ml pan-wash buffer. Bound phages were eluted in 200 μl 0.1M HCl-glycine pH 2.2 for 10 minutes on ice. The eluates were neutralised with 17 μl 1.5M Tris pH 8.8. Phages were amplified (essentially as described in Smith and Scott Methods Enzymol. 1993;217:228-57). A second round of affinity selection was performed using an input of 10^9 phages.
Peptide sequences of affinity selected phage clones: PCR products covering the peptide coding insert were created using the primers fUSE5 for (5′ […] 3′) and fUSE5 (5′[…] 3′). The PCR products were sequenced (GATC/GmBh Germany) using the primer (5′[…] 3′) and the results shown in Table 1.

[2] = test system: IFN-γ stimulated U937 cells; experiment: Phage binding to IFN-γ stimulated U937 cells; format: cell-based, human; conditions: for % output / Output (number of bound phages): U937-INF-γ, input 5 × 10^7 TU; for Output (number of bound phages): 3×10^6 cells, acid eluate
Method: (§2) Cells: U937 cells (ATCC CRL-1593) and K562 cells (ATCC CCL-243) were maintained in RPMI 1640 medium (Gibco laboratories) supplemented with 10% heat-inactivated FCS (Biological Industries, Beth Haemark), 2 mM L-glutamine, 100 U/ml penicillin (Gibco). Cells-were incubated at 5% CO2 and 37° C. at density ranging from 10^5 to 10^6 cells/ml.
To increase FcγRI expression the U937-cells were treated with 100 U/ml IFN-γ for 40 hours.
as §1
(§3) Cell binding of individual phages: Phage expressing the peptide CLRSGLGC were analysed for binding unstimulated U937 cells, IFN-γ stimulated U937 cells, as well as K562 cells. Both U937 and […]. Whereas INF-γ stimulated U937 cells express an increased number of FcγRI, K562-cells preferentially express FcγRII. 5×10^7 TU of individual phage clones were added to 3×10^6 cells in pan-wash buffer, incubated and eluted as described above.

unstimulated U937 cells = experiment: Phage binding to unstimulated U937 cells; format: cell-based, human; conditions: input 5 × 10^7 TU; for Output (number of bound phages): 3×10^6 cells
Method: as §2, §1, §3

K562 cells = experiment: Phage binding to K562 cells; format: cell-based, human; conditions: input 5 × 10^7 TU; for Output (number of bound phages): 3×10^6 cells
Method: as §2, §1, §3

[3] = target: T3, FcFcR (recombinant dimeric soluble human FcγRI) (Homo sapiens, UniProt P12314); experiment: Binding of phage displayed peptides to recombinant dimeric FcγRI (FcFcR) immobilised via protein A
T3 construct: the extracelluar part of the human FcγRI genetically fused to human IgG4; made in house; host or cells: mouse myeloma cell line NSO (lysate of transfected cells, not purified)
Method: (§4) Protein A was immobilised in wells at 10 μg/ml in a volume of 200 μl at 4° C. overnight (ON). The wells were blocked with 1% BSA in PBS for 1 h at room temperature (RT). Lysate from FcFcR-transfected and untransfected cells were added to the wells and incubated at RT for 2 h. The wells were washed and new lysate was added zero, one or two times following 2 h incubation at RT. The wells were washed 7 times with PBS/0.5% Tween 20. 200 μl biotinylated human IgG3 in PBS (1 μg/ml) was added to the wells. The wells were washed as above and binding of biotinylated IgG3 was detected with streptavidin and […] (FIG. 2).
(§5) Wells were coated as described above with lysate from FcFcR transfected NSO cells added three times. Phages displaying the peptide CLRSGLGC were added to the wells and incubated at RT for 1.5 h. The wells were washed 8 times with PBS/0.5% Tween 20. Bound phages were eluted by incubation with 200 μl 0.1M HCl-glycine pH 2.2 for 10 min. and neutralised with 17 μl 0.1M Tris pH 8.8. The number of bound phages were determined as E. coli K91K TU's (Table 4).

[4] = Phage binding to control wells (protein A with lysate from untransfected NSO cells; protein A blocked with BSA)
Method: as §4, §5

SC = target: T4, SC (Homo sapiens, UniProt P01833); experiment: Inhibition assay of SC binding phages; conditions: phages CWTSGARWRLC and CVVWMGFQQVC pre incubated with competitor
T4 construct: “secretory component”—the extracellular portion of the poly Ig receptor; from tissue; host or cells: human colostrum
Method: Inhibition assay of SC binding phages: Nunc MaxiSorb 96 wells plates were coated with 30 μg/ml of purified colostrum SC at 4° C. ON. The plates were blocked in 1% milk powder for 1 h at RT before adding phage. Phage were pre incubated with […] polymeric IgA (pIgA), pIgM or Streptococcus pneumoniae secretory IgA binding protein (SpsA) in PBS/1% milk powder. SpsA is an streptococcal produced SC binding protein (Hammerschmidt et al. Mol Microbiol 1997 sep 25 (6): 1113-24). After incubation for 1.5 h at RT the plates were washed 6 times before HRP/Anti-M13 conjugate (Pharmacia) 1:4000 in PBS with 1% milk powder was added. 6 times of washing with PBS/0.05% Tween were followed by the ABTS substrate solution. The ABTS-HRP reaction was read in a microtiter plate reader set at 405 nm. All samples were run in duplicates.

T2 sequence (P12314 16-374): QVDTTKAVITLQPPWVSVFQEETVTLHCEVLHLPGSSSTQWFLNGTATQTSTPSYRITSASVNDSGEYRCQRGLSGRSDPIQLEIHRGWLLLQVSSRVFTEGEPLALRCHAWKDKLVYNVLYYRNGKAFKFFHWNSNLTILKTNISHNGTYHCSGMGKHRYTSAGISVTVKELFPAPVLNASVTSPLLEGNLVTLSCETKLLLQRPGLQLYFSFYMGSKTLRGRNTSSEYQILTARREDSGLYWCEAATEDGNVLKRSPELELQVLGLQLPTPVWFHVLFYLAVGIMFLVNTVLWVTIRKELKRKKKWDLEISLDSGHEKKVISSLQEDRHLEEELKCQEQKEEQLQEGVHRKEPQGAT
T1 sequence (P01833 19-603 limits assumed): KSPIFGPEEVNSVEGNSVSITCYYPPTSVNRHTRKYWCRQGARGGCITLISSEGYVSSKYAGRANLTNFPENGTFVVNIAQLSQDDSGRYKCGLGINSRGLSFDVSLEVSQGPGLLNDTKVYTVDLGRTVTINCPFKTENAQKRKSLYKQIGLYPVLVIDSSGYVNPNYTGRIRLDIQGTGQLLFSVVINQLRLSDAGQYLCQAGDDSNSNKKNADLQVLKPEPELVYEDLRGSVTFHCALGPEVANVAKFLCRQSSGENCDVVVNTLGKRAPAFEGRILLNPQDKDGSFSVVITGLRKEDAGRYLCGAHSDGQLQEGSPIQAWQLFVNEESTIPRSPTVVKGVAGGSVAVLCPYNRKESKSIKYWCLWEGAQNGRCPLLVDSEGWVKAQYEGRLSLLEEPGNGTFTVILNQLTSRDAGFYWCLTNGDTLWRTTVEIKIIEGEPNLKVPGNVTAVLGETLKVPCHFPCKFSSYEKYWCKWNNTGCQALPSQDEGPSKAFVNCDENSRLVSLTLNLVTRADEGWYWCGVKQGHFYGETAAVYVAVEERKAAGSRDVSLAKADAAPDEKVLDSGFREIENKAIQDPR
T3 sequence (P12314 16-292 limits assumed): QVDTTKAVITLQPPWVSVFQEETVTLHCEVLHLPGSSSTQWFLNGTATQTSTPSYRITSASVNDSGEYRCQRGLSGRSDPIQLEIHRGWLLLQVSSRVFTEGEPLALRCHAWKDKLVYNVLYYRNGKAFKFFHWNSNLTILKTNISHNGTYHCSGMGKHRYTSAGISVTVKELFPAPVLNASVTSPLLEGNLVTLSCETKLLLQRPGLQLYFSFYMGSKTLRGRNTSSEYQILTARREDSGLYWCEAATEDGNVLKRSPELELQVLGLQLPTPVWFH
T4 sequence (P01833 19-603 limits assumed): as the sequence (P01833 19-603 limits assumed) above

CAWHYRFCGAAHSADGACREVFLVC
binding to the poly Ig receptor [1]: shown to bind the poly Ig receptor
SC binding of single phage clones (ELISA) [1]: positive

CFPVGRATC
binding to the FcγRI receptor (FcγRI receptor): shown to bind the FcγRI receptor

CGPGGTVGYTC [CONTROL, control phage displaying an irrelevant insert (…), reference compound]
% output [2]: <0.0004%
Output (number of bound phages) [2]: <2 × 10^2 TU
% output (unstimulated U937 cells): <0.0004%
Output (number of bound phages) (unstimulated U937 cells): <2 × 10^2 TU
% output (K562 cells): <0.0004%
Output (number of bound phages) (K562 cells): <2 × 10^2 TU

CGRVNTWLPQC
binding to the FcγRI receptor (FcγRI receptor): shown to bind the FcγRI receptor

CLRSGAGC
binding to the FcγRI receptor (FcγRI receptor): shown to bind the FcγRI receptor

CLRSGANC
binding to the FcγRI receptor (FcγRI receptor): shown to bind the FcγRI receptor

CLRSGLGC
times more phages eluted compared to the irrelevant control phage ([2]; IFN-γ stimulated U937 cells): More than 500 times
% output [2]: 0.2%
Output (number of bound phages) [2]: 1 × 10^5 TU
binding to IFN-γ stimulated U937 cells compared to unstimulated U937 cells and K562 cells ([2]; same number of cells): bound significantly better to IFN-γ stimulated U937 cells
% output (unstimulated U937 cells): 0.028%
Output (number of bound phages) (unstimulated U937 cells): 1.4 × 10^4 TU
% output (K562 cells): 0.02%
Output (number of bound phages) (K562 cells): 1.4 × 10^4 TU
binding to wells with immobilised FcFcR compared to wells with no FcR activity [3]: significant better binding
% output ([3]; lysate from FcFcR transfected cells): 0.3%
Output (number of bound phages) ([3]; lysate from FcFcR transfected cells, input 2.5 × 10^8): 6.8 × 10^5 TU
% output [4]: 0.05%
Output (number of bound phages) ([4]; input 2.5 × 10^8): 1.2 × 10^5 TU
binding to the FcγRI receptor (FcγRI receptor): shown to bind the FcγRI receptor

CLRSGLHC
binding to the FcγRI receptor (FcγRI receptor): shown to bind the FcγRI receptor

CLRSGRAC
binding to the FcγRI receptor (FcγRI receptor): shown to bind the FcγRI receptor

CLRSGRGC
binding to the FcγRI receptor (FcγRI receptor): shown to bind the FcγRI receptor

CLRSGSGC
binding to the FcγRI receptor (FcγRI receptor): shown to bind the FcγRI receptor

CLYGDELC
binding to the FcγRI receptor (FcγRI receptor): shown to bind the FcγRI receptor

CQDPICFCGADGACYCTSRNC
binding to the poly Ig receptor [1]: shown to bind the poly Ig receptor
SC binding of single phage clones (ELISA) [1]: positive

CRRATAGCAGC
binding to the FcγRI receptor (FcγRI receptor): shown to bind the FcγRI receptor

CRRSGQGC
binding to the FcγRI receptor (FcγRI receptor): shown to bind the FcγRI receptor

CRSMVMLRVRC
binding to the FcγRI receptor (FcγRI receptor): shown to bind the FcγRI receptor

CSAGRACCRYC
binding to the FcγRI receptor (FcγRI receptor): shown to bind the FcγRI receptor

CSWIPGVGLVC
binding to the FcγRI receptor (FcγRI receptor): shown to bind the FcγRI receptor

CVVWMGFQQVC
binding to the poly Ig receptor [1]: shown to bind the poly Ig receptor
SC binding of single phage clones (ELISA) [1]: SC binding

CWTSGARWRLC
binding to the poly Ig receptor [1]: shown to bind the poly Ig receptor
SC binding of single phage clones (ELISA) [1]: SC binding

SpsA
blocking of phage binding to SC (SC): blocked phage from binding to the receptor for both peptides
